Experimental findings from patent US20140294898A1 (published 2014) are described below.

The IC50 is the point on the concentration scale where inhibition reaches its midpoint. Low values mean greater potency in that assay, high ones weaker potency in that assay.

B1: Compound No. 67 (peptide)
peptide: FANPHLGWSWFXRCG
HELM: PEPTIDE1{[O=C(C[*:3])[*:2]].F.[meA].N.P.H.L.[Sar].W.S.W.[meF].[CCCC[C@@H](C(=O)[*:2])N(C)[*:1]].R.C.G.[am]}$PEPTIDE1,PEPTIDE1,1:R3-15:R3$$$V2.0
SMILES: CCCC[C@H]1C(=O)N[C@@H](CCCNC(=N)N)C(=O)N[C@H](C(=O)NCC(N)=O)CSCC(=O)N[C@@H](Cc2ccccc2)C(=O)N(C)[C@@H](C)C(=O)N[C@@H](CC(N)=O)C(=O)N2CCC[C@H]2C(=O)N[C@@H](Cc2c[nH]cn2)C(=O)N[C@@H](CC(C)C)C(=O)N(C)CC(=O)N[C@@H](Cc2c[nH]c3ccccc23)C(=O)N[C@@H](CO)C(=O)N[C@@H](Cc2c[nH]c3ccccc23)C(=O)N(C)[C@@H](Cc2ccccc2)C(=O)N1C
notes: macrocyclic peptide, Formula I series; also called Compound 67
B2: Compound No. 19 (peptide)
peptide: FANPHLGWSWAXRCG
HELM: PEPTIDE1{[O=C(C[*:3])[*:2]].F.[meA].N.P.H.L.[Sar].W.S.W.[meA].[CCCC[C@@H](C(=O)[*:2])N(C)[*:1]].R.C.G.[am]}$PEPTIDE1,PEPTIDE1,1:R3-15:R3$$$V2.0
SMILES: CCCC[C@H]1C(=O)N[C@@H](CCCNC(=N)N)C(=O)N[C@H](C(=O)NCC(N)=O)CSCC(=O)N[C@@H](Cc2ccccc2)C(=O)N(C)[C@@H](C)C(=O)N[C@@H](CC(N)=O)C(=O)N2CCC[C@H]2C(=O)N[C@@H](Cc2c[nH]cn2)C(=O)N[C@@H](CC(C)C)C(=O)N(C)CC(=O)N[C@@H](Cc2c[nH]c3ccccc23)C(=O)N[C@@H](CO)C(=O)N[C@@H](Cc2c[nH]c3ccccc23)C(=O)N(C)[C@@H](C)C(=O)N1C
notes: macrocyclic peptide, Formula I series; also called Compound 19
B3: Compound No. 15 (peptide)
peptide: {CH2CO}-F[NMeA]NPHL[Sar]ASW[NMeNle][NMeNle]RCG-NH2
modifications: thioether N-14
SMILES: CCCC[C@H]1C(=O)N(C)[C@@H](CCCC)C(=O)N[C@@H](CCCNC(=N)N)C(=O)N[C@H](C(=O)NCC(N)=O)CSCC(=O)N[C@@H](Cc2ccccc2)C(=O)N(C)[C@@H](C)C(=O)N[C@@H](CC(N)=O)C(=O)N2CCC[C@H]2C(=O)N[C@@H](Cc2c[nH]cn2)C(=O)N[C@@H](CC(C)C)C(=O)N(C)CC(=O)N[C@@H](C)C(=O)N[C@@H](CO)C(=O)N[C@@H](Cc2c[nH]c3ccccc23)C(=O)N1C
notes: macrocyclic peptide, Formula I series; also called Compound 15
B4: Compound No. 54 (peptide)
peptide: {CH2CO}-F[NMeA]NPHLRWSW[NMeNle][NMeNle]RCG-NH2
modifications: thioether N-14
SMILES: CCCC[C@H]1C(=O)N(C)[C@@H](CCCC)C(=O)N[C@@H](CCCNC(=N)N)C(=O)N[C@H](C(=O)NCC(N)=O)CSCC(=O)N[C@@H](Cc2ccccc2)C(=O)N(C)[C@@H](C)C(=O)N[C@@H](CC(N)=O)C(=O)N2CCC[C@H]2C(=O)N[C@@H](Cc2c[nH]cn2)C(=O)N[C@@H](CC(C)C)C(=O)N[C@@H](CCCNC(=N)N)C(=O)N[C@@H](Cc2c[nH]c3ccccc23)C(=O)N[C@@H](CO)C(=O)N[C@@H](Cc2c[nH]c3ccccc23)C(=O)N1C
notes: macrocyclic peptide, Formula I series; also called Compound 54
B5: Compound No. 25 (peptide)
peptide: {CH2CO}-W[NMeA]NPHL[Sar]WSW[NMeNle][NMeNle]RCG-NH2
modifications: thioether N-14
SMILES: CCCC[C@H]1C(=O)N(C)[C@@H](CCCC)C(=O)N[C@@H](CCCNC(=N)N)C(=O)N[C@H](C(=O)NCC(N)=O)CSCC(=O)N[C@@H](Cc2c[nH]c3ccccc23)C(=O)N(C)[C@@H](C)C(=O)N[C@@H](CC(N)=O)C(=O)N2CCC[C@H]2C(=O)N[C@@H](Cc2c[nH]cn2)C(=O)N[C@@H](CC(C)C)C(=O)N(C)CC(=O)N[C@@H](Cc2c[nH]c3ccccc23)C(=O)N[C@@H](CO)C(=O)N[C@@H](Cc2c[nH]c3ccccc23)C(=O)N1C
notes: macrocyclic peptide, Formula I series; also called Compound 25
B6: Compound No. 22 (peptide)
peptide: {CH2CO}-F[NMeA]NPHL[Sar]WSW[NMeNle][NMeNle]ACG-NH2
modifications: thioether N-14
SMILES: CCCC[C@H]1C(=O)N(C)[C@@H](CCCC)C(=O)N[C@@H](C)C(=O)N[C@H](C(=O)NCC(N)=O)CSCC(=O)N[C@@H](Cc2ccccc2)C(=O)N(C)[C@@H](C)C(=O)N[C@@H](CC(N)=O)C(=O)N2CCC[C@H]2C(=O)N[C@@H](Cc2c[nH]cn2)C(=O)N[C@@H](CC(C)C)C(=O)N(C)CC(=O)N[C@@H](Cc2c[nH]c3ccccc23)C(=O)N[C@@H](CO)C(=O)N[C@@H](Cc2c[nH]c3ccccc23)C(=O)N1C
notes: macrocyclic peptide, Formula I series; also called Compound 22
B7: Compound No. 30 (peptide)
peptide: {CH2CO}-Y[NMeA]NPHL[Sar]WSW[NMeNle][NMeNle]RCG-NH2
modifications: thioether N-14
SMILES: CCCC[C@H]1C(=O)N(C)[C@@H](CCCC)C(=O)N[C@@H](CCCNC(=N)N)C(=O)N[C@H](C(=O)NCC(N)=O)CSCC(=O)N[C@@H](Cc2ccc(O)cc2)C(=O)N(C)[C@@H](C)C(=O)N[C@@H](CC(N)=O)C(=O)N2CCC[C@H]2C(=O)N[C@@H](Cc2c[nH]cn2)C(=O)N[C@@H](CC(C)C)C(=O)N(C)CC(=O)N[C@@H](Cc2c[nH]c3ccccc23)C(=O)N[C@@H](CO)C(=O)N[C@@H](Cc2c[nH]c3ccccc23)C(=O)N1C
notes: macrocyclic peptide, Formula I series; also called Compound 30
B8: Compound No. 16 (peptide)
peptide: {CH2CO}-F[NMeA]NPHL[Sar]WAW[NMeNle][NMeNle]RCG-NH2
modifications: thioether N-14
SMILES: CCCC[C@H]1C(=O)N(C)[C@@H](CCCC)C(=O)N[C@@H](CCCNC(=N)N)C(=O)N[C@H](C(=O)NCC(N)=O)CSCC(=O)N[C@@H](Cc2ccccc2)C(=O)N(C)[C@@H](C)C(=O)N[C@@H](CC(N)=O)C(=O)N2CCC[C@H]2C(=O)N[C@@H](Cc2c[nH]cn2)C(=O)N[C@@H](CC(C)C)C(=O)N(C)CC(=O)N[C@@H](Cc2c[nH]c3ccccc23)C(=O)N[C@@H](C)C(=O)N[C@@H](Cc2c[nH]c3ccccc23)C(=O)N1C
notes: macrocyclic peptide, Formula I series; also called Compound 16
B9: Compound No. 62 (peptide)
peptide: {CH2CO}-F[NMeA]NPHL[Sar]WSI[NMeNle][NMeNle]RCG-NH2
modifications: thioether N-14
SMILES: CCCC[C@H]1C(=O)N(C)[C@@H](CCCC)C(=O)N[C@@H](CCCNC(=N)N)C(=O)N[C@H](C(=O)NCC(N)=O)CSCC(=O)N[C@@H](Cc2ccccc2)C(=O)N(C)[C@@H](C)C(=O)N[C@@H](CC(N)=O)C(=O)N2CCC[C@H]2C(=O)N[C@@H](Cc2c[nH]cn2)C(=O)N[C@@H](CC(C)C)C(=O)N(C)CC(=O)N[C@@H](Cc2c[nH]c3ccccc23)C(=O)N[C@@H](CO)C(=O)N[C@@H]([C@@H](C)CC)C(=O)N1C
notes: macrocyclic peptide, Formula I series; also called Compound 62
B10: Compound No. 51 (peptide)
peptide: {CH2CO}-F[NMeA]NPHD[Sar]WSW[NMeNle][NMeNle]RCG-NH2
modifications: thioether N-14
SMILES: CCCC[C@H]1C(=O)N(C)[C@@H](CCCC)C(=O)N[C@@H](CCCNC(=N)N)C(=O)N[C@H](C(=O)NCC(N)=O)CSCC(=O)N[C@@H](Cc2ccccc2)C(=O)N(C)[C@@H](C)C(=O)N[C@@H](CC(N)=O)C(=O)N2CCC[C@H]2C(=O)N[C@@H](Cc2c[nH]cn2)C(=O)N[C@@H](CC(=O)O)C(=O)N(C)CC(=O)N[C@@H](Cc2c[nH]c3ccccc23)C(=O)N[C@@H](CO)C(=O)N[C@@H](Cc2c[nH]c3ccccc23)C(=O)N1C
notes: macrocyclic peptide, Formula I series; also called Compound 51
B11: Compound No. 43 (peptide)
peptide: {CH2CO}-F[NMeA]GPHL[Sar]WSW[NMeNle][NMeNle]RCG-NH2
modifications: thioether N-14
SMILES: CCCC[C@H]1C(=O)N(C)[C@@H](CCCC)C(=O)N[C@@H](CCCNC(=N)N)C(=O)N[C@H](C(=O)NCC(N)=O)CSCC(=O)N[C@@H](Cc2ccccc2)C(=O)N(C)[C@@H](C)C(=O)NCC(=O)N2CCC[C@H]2C(=O)N[C@@H](Cc2c[nH]cn2)C(=O)N[C@@H](CC(C)C)C(=O)N(C)CC(=O)N[C@@H](Cc2c[nH]c3ccccc23)C(=O)N[C@@H](CO)C(=O)N[C@@H](Cc2c[nH]c3ccccc23)C(=O)N1C
notes: macrocyclic peptide, Formula I series; also called Compound 43
B12: Compound No. 53 (peptide)
peptide: {CH2CO}-F[NMeA]NPHLHWSW[NMeNle][NMeNle]RCG-NH2
modifications: thioether N-14
SMILES: CCCC[C@H]1C(=O)N(C)[C@@H](CCCC)C(=O)N[C@@H](CCCNC(=N)N)C(=O)N[C@H](C(=O)NCC(N)=O)CSCC(=O)N[C@@H](Cc2ccccc2)C(=O)N(C)[C@@H](C)C(=O)N[C@@H](CC(N)=O)C(=O)N2CCC[C@H]2C(=O)N[C@@H](Cc2c[nH]cn2)C(=O)N[C@@H](CC(C)C)C(=O)N[C@@H](Cc2c[nH]cn2)C(=O)N[C@@H](Cc2c[nH]c3ccccc23)C(=O)N[C@@H](CO)C(=O)N[C@@H](Cc2c[nH]c3ccccc23)C(=O)N1C
notes: macrocyclic peptide, Formula I series; also called Compound 53
B13: Compound No. 55 (peptide)
peptide: {CH2CO}-F[NMeA]NPHLPWSW[NMeNle][NMeNle]RCG-NH2
modifications: thioether N-14
SMILES: CCCC[C@H]1C(=O)N(C)[C@@H](CCCC)C(=O)N[C@@H](CCCNC(=N)N)C(=O)N[C@H](C(=O)NCC(N)=O)CSCC(=O)N[C@@H](Cc2ccccc2)C(=O)N(C)[C@@H](C)C(=O)N[C@@H](CC(N)=O)C(=O)N2CCC[C@H]2C(=O)N[C@@H](Cc2c[nH]cn2)C(=O)N[C@@H](CC(C)C)C(=O)N2CCC[C@H]2C(=O)N[C@@H](Cc2c[nH]c3ccccc23)C(=O)N[C@@H](CO)C(=O)N[C@@H](Cc2c[nH]c3ccccc23)C(=O)N1C
notes: macrocyclic peptide, Formula I series; also called Compound 55
B14: Compound No. 61 (peptide)
peptide: {CH2CO}-F[NMeA]NPHL[Sar]WSM[NMeNle][NMeNle]RCG-NH2
modifications: thioether N-14
SMILES: CCCC[C@H]1C(=O)N(C)[C@@H](CCCC)C(=O)N[C@@H](CCCNC(=N)N)C(=O)N[C@H](C(=O)NCC(N)=O)CSCC(=O)N[C@@H](Cc2ccccc2)C(=O)N(C)[C@@H](C)C(=O)N[C@@H](CC(N)=O)C(=O)N2CCC[C@H]2C(=O)N[C@@H](Cc2c[nH]cn2)C(=O)N[C@@H](CC(C)C)C(=O)N(C)CC(=O)N[C@@H](Cc2c[nH]c3ccccc23)C(=O)N[C@@H](CO)C(=O)N[C@@H](CCSC)C(=O)N1C
notes: macrocyclic peptide, Formula I series; also called Compound 61

Positions of bridges follow the written chain, without caps; N, C: chain ends. Non-standard residues stand in square brackets, D forms with d. NMeNle = CCCC[C@H](NC)C(=O)O; NMeA = CN[C@@H](C)C(=O)O; Sar = CNCC(=O)O

The target of the assay is T1, human PD-L1 (human, UniProt Q9NZQ7 19-239, limits assumed).
T1 construct: also called Hu PD-L1; hPD-L1
T1 sequence (Q9NZQ7 19-239 limits assumed): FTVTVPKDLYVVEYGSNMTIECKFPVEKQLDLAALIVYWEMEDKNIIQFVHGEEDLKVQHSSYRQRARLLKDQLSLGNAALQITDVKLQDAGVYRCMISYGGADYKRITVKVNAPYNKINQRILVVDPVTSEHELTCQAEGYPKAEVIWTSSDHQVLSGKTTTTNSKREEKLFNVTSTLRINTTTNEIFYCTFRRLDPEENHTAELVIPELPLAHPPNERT
The assay is described as follows: cell binding assay, inhibition of Hu PD-L1/PD-1 binding.
The molecule B1 had an IC50 of 0.143 µM.

In turn, B2 returned a 50% inhibitory concentration (IC50) of 0.134 µM.

With B3, the IC50 came out at 1.91 µM.

Take B4: the IC50 was 0.068 µM.

Molecule B5 returned an IC50 of 0.019 µM.

For B6, the IC50 amounted to 0.028 µM.

Turning to B7, the IC50 turned out to be 0.003 µM.

The molecule B8 returned an IC50 of 0.013 µM.

With B9, the IC50 is 3.41 µM.

B10 yielded a half-maximal inhibitory concentration (IC50) of 0.118 µM.

Turning to B11, the concentration for half-maximal inhibition (IC50) was determined as 5.33 µM.

Molecule B12 gave an IC50 of 0.047 µM.

In turn, B13 displayed an IC50 of 0.003 µM.

With B14, the IC50 is 0.195 µM.
